Assay results taken from patent US20070249813A1 (AbbVie / Abbott, published 2007).
Substitutions are numbered along the chain they refer to.

B1: VH1-D2/LOE7 (format printed as IgG1/IgG4 in Table 6, scFv/IgG1/IgG4 in Table 7) (antibody, V domains shown)
VH: QVQLVESGGGLVQPGRSLRLSCAASGFTFDDYAMHWVRQAPGKGLDWVSAITWNSGHIDYADSVEGRFAVSRDNAKNALYLQMNSLRPEDTAVYYCAKVSYLSTASSLDYWGQGTLVTVSS
VL: not shown
B2: 2SD4/2SD4 (format printed as scFv/IgG1/IgG4) (antibody, V domains shown)
VH: B1 VH with A97T, V99A, A105S, Y110N
VL: DIQMTQSPSSLSASIGDRVTITCRASQGIRNYLAWYQQKPGKAPKLLIYAASTLQSGVPSRFSGSGSGTDFTLTISSLQPEDVATYYCQKYNSAPYAFGQGTKVEIK
B3: VH1-D2/2SD4 VL scFv (scFv, V domains shown)
VH: B1 VH
VL: B2 VL
notes: scFv
B4: VH1-D2.Y/LOE7.A IgG4 (antibody, V domains shown)
VH: B1 VH
VL: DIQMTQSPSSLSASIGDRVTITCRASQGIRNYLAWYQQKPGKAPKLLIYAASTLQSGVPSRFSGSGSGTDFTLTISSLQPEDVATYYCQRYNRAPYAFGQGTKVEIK
notes: IgG4
B5: VH1-D2.N/LOE7.A IgG4 (antibody, V domains shown)
VH: B1 VH with Y110N
VL: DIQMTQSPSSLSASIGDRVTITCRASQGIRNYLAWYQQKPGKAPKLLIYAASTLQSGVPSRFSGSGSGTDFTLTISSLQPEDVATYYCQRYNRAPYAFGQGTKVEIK
notes: IgG4
B6: VH1-D2.N/LOE7.T IgG4 (antibody, V domains shown)
VH: B1 VH with Y110N
VL: not shown
notes: IgG4
B7: VH1-D2/EP B12 scFv (scFv, V domains shown)
VH: B1 VH
VL: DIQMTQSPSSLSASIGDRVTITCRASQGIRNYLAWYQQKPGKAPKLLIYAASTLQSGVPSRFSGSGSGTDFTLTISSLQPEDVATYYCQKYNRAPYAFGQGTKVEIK
notes: scFv
B8: VH1-D2/LOE7 scFv (scFv, V domains shown)
VH: B1 VH
VL: not shown
notes: scFv; not shown: the scFv linker and the order of the domains
B9: VH1B12/2SD4 VL scFv (scFv, V domains shown)
VH: B1 VH with V99A, A105S, S106F
VL: B2 VL
notes: scFv
B10: VH1A11/2SD4 VL scFv (scFv, V domains shown)
VH: B1 VH with A97T, V99A, A105S, Y110D
VL: B2 VL
notes: scFv
B11: 2SD4 VH/VL0.1H8 scFv (scFv, V domains shown)
VH: B1 VH with A97T, V99A, A105S, Y110N
VL: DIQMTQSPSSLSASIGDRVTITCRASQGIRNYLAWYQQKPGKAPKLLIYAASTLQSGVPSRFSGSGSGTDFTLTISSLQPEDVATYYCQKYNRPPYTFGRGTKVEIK
notes: scFv
B12: 2SD4 VH/VL1B7 scFv (scFv, V domains shown)
VH: B1 VH with A97T, V99A, A105S, Y110N
VL: B2 VL with K90Q, Y96D, A97T, F98W
notes: scFv
B13: 2SD4 VH/VL100A9 scFv (scFv, V domains shown)
VH: B1 VH with A97T, V99A, A105S, Y110N
VL: B2 VL with N92S, A97T
notes: scFv
B14: 2SD4 VH/VL10F4 scFv (scFv, V domains shown)
VH: B1 VH with A97T, V99A, A105S, Y110N
VL: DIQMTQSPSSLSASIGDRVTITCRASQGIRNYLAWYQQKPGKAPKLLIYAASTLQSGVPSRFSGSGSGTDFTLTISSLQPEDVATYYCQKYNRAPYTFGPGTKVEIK
notes: scFv
B15: VH1D8/2SD4 VL scFv (scFv, V domains shown)
VH: B1 VH with K98R, V99A, A105S
VL: B2 VL
notes: scFv
B16: 2SD4 VH/VL1C1 scFv (scFv, V domains shown)
VH: B1 VH with A97T, V99A, A105S, Y110N
VL: B2 VL with A94D, A97T
notes: scFv
B17: VH1E4/2SD4 VL scFv (scFv, V domains shown)
VH: B1 VH with V99A, A105S, D109H
VL: B2 VL
notes: scFv
B18: 2SD4 VH/VLLOH10 scFv (scFv, V domains shown)
VH: B1 VH with A97T, V99A, A105S, Y110N
VL: B2 VL with P95A, A97S
notes: scFv
B19: VH1G1/2SD4 VL scFv (scFv, V domains shown)
VH: B1 VH with V93A, V99A, A105S
VL: B2 VL
notes: scFv
B20: 2SD4 VH/VLLOH1 scFv (scFv, V domains shown)
VH: B1 VH with A97T, V99A, A105S, Y110N
VL: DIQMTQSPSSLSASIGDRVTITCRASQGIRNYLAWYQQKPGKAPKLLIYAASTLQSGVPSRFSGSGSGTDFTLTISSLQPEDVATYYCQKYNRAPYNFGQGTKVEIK
notes: scFv
B21: 2SD4 VH/VL100D2 scFv (scFv, V domains shown)
VH: B1 VH with A97T, V99A, A105S, Y110N
VL: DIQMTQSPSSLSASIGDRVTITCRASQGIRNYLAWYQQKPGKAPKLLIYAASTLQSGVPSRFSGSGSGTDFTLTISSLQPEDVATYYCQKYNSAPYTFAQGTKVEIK
notes: scFv
B22: 2SD4 VH/VLLOG7 scFv (scFv, V domains shown)
VH: B1 VH with A97T, V99A, A105S, Y110N
VL: B2 VL with A97N
notes: scFv
B23: 2SD4 VH/VLLOG9 scFv (scFv, V domains shown)
VH: B1 VH with A97T, V99A, A105S, Y110N
VL: B2 VL with N92T, A97T
notes: scFv
B24: 2SD4 VH/VL10E4 scFv (scFv, V domains shown)
VH: B1 VH with A97T, V99A, A105S, Y110N
VL: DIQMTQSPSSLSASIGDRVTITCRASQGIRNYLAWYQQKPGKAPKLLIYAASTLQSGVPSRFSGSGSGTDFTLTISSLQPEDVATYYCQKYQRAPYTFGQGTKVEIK
notes: scFv
B25: 2SD4 VH/EP B12 scFv (scFv, V domains shown)
VH: B1 VH with A97T, V99A, A105S, Y110N
VL: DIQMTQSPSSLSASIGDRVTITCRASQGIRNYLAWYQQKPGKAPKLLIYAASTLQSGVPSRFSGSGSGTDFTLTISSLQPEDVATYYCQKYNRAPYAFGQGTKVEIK
notes: scFv
B26: VH1B11/2SD4 VL scFv (scFv, V domains shown)
VH: B1 VH with A97T, V99A, A105S, Y110K
VL: B2 VL
notes: scFv
B27: 2SD4 VH/VLL0F10 scFv (scFv, V domains shown)
VH: B1 VH with A97T, V99A, A105S, Y110N
VL: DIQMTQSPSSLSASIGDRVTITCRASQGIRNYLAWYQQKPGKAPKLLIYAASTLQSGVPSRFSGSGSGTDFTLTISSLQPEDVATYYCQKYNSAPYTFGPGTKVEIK
notes: scFv
B28: 2SD4 VH/VL1C7 scFv (scFv, V domains shown)
VH: B1 VH with A97T, V99A, A105S, Y110N
VL: B2 VL with A97N
notes: scFv
B29: 2SD4 VH/VL0.1F4 scFv (scFv, V domains shown)
VH: B1 VH with A97T, V99A, A105S, Y110N
VL: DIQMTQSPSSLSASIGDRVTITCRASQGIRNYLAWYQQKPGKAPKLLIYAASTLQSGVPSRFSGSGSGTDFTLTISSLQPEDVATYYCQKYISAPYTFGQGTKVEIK
notes: scFv
B30: VH1F6/2SD4 VL scFv (scFv, V domains shown)
VH: B1 VH with V99A, Y101F, A105S, D109E
VL: B2 VL
notes: scFv

These binders were tested against recombinant human TNFα (human, UniProt P01375 77-233, The active form is a noncovalent homotrimer; one protomer is given.) (assay: cell-based or functional assay).
recombinant human TNFα, sequence (P01375 77-233 limits assumed): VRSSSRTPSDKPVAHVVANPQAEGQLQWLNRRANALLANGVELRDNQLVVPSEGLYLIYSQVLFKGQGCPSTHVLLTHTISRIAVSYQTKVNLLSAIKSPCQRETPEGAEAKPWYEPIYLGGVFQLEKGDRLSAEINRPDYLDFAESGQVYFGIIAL
B1 was tested, and the “IC50, neutralization of TNFα-induced L929 cytotoxicity” value (from here on “IC50, neutralization”) was 340 pM. B2 was tested, and the “IC50, neutralization” value was 300000 pM. With B3 the “IC50, neutralization” value was 10000 pM. B4 was tested, and the “IC50, neutralization” value was 28 pM. For B5, the “IC50, neutralization” value was 62 pM. B6 was tested, and the “IC50, neutralization” value was 130 pM.

The binders below were run against T1, biotinylated recombinant human TNFα (human, UniProt P01375 77-233, biotinylated (D-biotinyl-ε-aminocaproic acid N-hydroxysuccinimide ester, 2:1 molar ratio of biotin to rhTNFα)) (assay: SPR (BIAcore), scFv, reference VH1-D2/LOE7).
T1 construct: mature; Immobilized via streptavidin on the BIAcore chip; also called biotinylated rhTNFα; biotinylated rhTNF
T1 sequence (P01375 77-233 limits assumed): as above
Description: (§1) Before injection of the protein and immediately afterward, PBS buffer alone flowed through each flow cell. […] Antibodies (20 μg/ml) were diluted in PBS running buffer and 25 μl aliquots were injected through the immobilized protein matrices at a flow rate of 5 μl/min. Prior to injection of antibody, and immediately afterwards, PBS buffer alone flowed through each flow cell. The net difference in baseline signal and signal after completion of antibody injection was taken to represent the binding value of the particular sample. Biosensor matrices were regenerated using 100 mM HCI before injection of the next sample. To determine the off rate (Koff), on rate (Kₒₙ), association rate (Kₐ) and dissociation rate (Kd) constants, BIAcore kinetic evaluation software (version 2.1) was used.
For B7, the “fold faster off rate against LOE7” value was 2 fold.

What follows are binders tested against T1, biotinylated recombinant human TNFα (assay: SPR (BIAcore), biotinylated rhTNFα, IgG4).
Description: as §1
B4 showed a koff of 2.7e-05 s⁻¹. With B5 the koff was 3.2e-05 s⁻¹. For B6, the koff was 2.1e-05 s⁻¹.

Each binder was assayed against T1, biotinylated recombinant human TNFα (assay: SPR (BIAcore), biotinylated rhTNFα, scFv).
Description: as §1
In the case of B8, the koff is reported as 0.00046 s⁻¹. Work on B9 yielded a koff of 0.0101 s⁻¹. B10 was tested, and the koff was 0.0134 s⁻¹. B11 showed a koff of 0.0114 s⁻¹. B12 was tested, and the koff was 0.013 s⁻¹. With B3 the koff was 0.00194 s⁻¹. Work on B13 yielded a koff of 0.0133 s⁻¹. B14 gave a koff of 0.0111 s⁻¹. With B7 the koff was 0.0008 s⁻¹. Binder B15 has a koff of 0.0095 s⁻¹. For B16, the koff was 0.0136 s⁻¹. In the case of B17, the koff is reported as 0.0159 s⁻¹. Work on B18 yielded a koff of 0.0112 s⁻¹. Work on B19 yielded a koff of 0.0214 s⁻¹. B20 was tested, and the koff was 0.0117 s⁻¹. Work on B21 yielded a koff of 0.0141 s⁻¹. B22 was tested, and the koff was 0.0156 s⁻¹. B23 was tested, and the koff was 0.0146 s⁻¹. B24 showed a koff of 0.0096 s⁻¹. B25 showed a koff of 0.0067 s⁻¹. For B26, the koff was 0.0098 s⁻¹. B27 showed a koff of 0.0134 s⁻¹. B28 showed a koff of 0.02 s⁻¹. Work on B29 yielded a koff of 0.0176 s⁻¹. In the case of B30, the koff is reported as 0.0229 s⁻¹.

Each binder was assayed against T1, biotinylated recombinant human TNFα (assay: SPR (BIAcore), scFv; reference taken to be VH1-D2/LOE7).
Description: as §1
In the case of B3, the “fold faster off rate” value is reported as 5 fold.

The binders below were run against T1, biotinylated recombinant human TNFα (assay: SPR (BIAcore), biotinylated rhTNFα, format IgG1/IgG4).
Description: as §1
B1 gave a koff of 7.7e-05 s⁻¹.
